Assay results as given in patent publication US20110293511A1, “SPECIFIC BINDING PROTEINS AND USES THEREOF” (priority 2009, published 2011).

Legend:
[1] = target: T1, EGFR from U87MG.wtEGFR and A431 cells (Homo sapiens, UniProt P00533); experiment: immunoprecipitation and Endo H digestion; assay type: binding; conditions: majority / bulk of the material
T1 construct: endogenous in cells; host or cells: A431 (endogenous, amplified gene) and U87MG.wtEGFR (U87MG transfected with wtEGFR)
Procedure: This possibility was tested by immunoprecipitating the EGFR from different cells lines labelled overnight with ^35S methionine/cysteine and then subjecting the resultant precipitates to Endoglycosidase H (Endo H) digestion. This enzyme preferentially removes high mannose type carbohydrates (i.e. immature glycosylation) from proteins while leaving complex carbohydrates (i.e. mature glycosylation) intact.

[2] = test system: DU145 cells; experiment: FACS analysis; assay type: binding, human
Description: Clearly, mAb806 and mAb175 can recognize only a small proportion of the EGFR on cells in the presence of an autocrine stimulation loop.

[3] = target: T2, EGFR of A431 cells (Homo sapiens, UniProt P00533); experiment: ELISA of 806 reactivity in A431 lysate with AG1478; assay type: cell-based; conditions: AG1478 0.5 μM and 5 μM, 10 min at 37° C.
T2 construct: endogenous in cells; host or cells: A431 human squamous carcinoma cells
Procedure: Cells were placed in serum free media overnight, then treated with AG1478 for 10 min at 37° C., washed twice in PBS, then lysed in 1% Triton and lysates prepared by centrifugation for 10 min at 12,000 g. […] Plates were then blocked with 10% serum albumin/PBS for 2 hours at 37° C. and washed twice. A 1:20 cell lysate was added in 10% serum albumin/PBS for 1 hour at 37° C., then washed four times. Anti-EGFR(SC-03; Santa Cruz Biotechnology Inc.) in 10% serum albumin/PBS was reacted 90 min at room temperature, the plate washed four times, and anti-rabbit-HRP (1:2000 if from Silenus) in 10% serum albumin/PBS was added for 90 min at room temperature, washed four times, and color developed using ABTS as a substrate.

[4] = test system: U87MG.DK brain xenografts; experiment: intracranial glioma xenograft treatment; assay type: in vivo, nude mice; conditions: i.p. day 0 through 14
[5] = test system: HN5 and MDA-468 cells; experiment: binding to cell lines by FACS; set-up: species or system human; conditions: HN5 and MDA-468, both cell lines
[6] = target: T3, biotinylated de2-7 specific peptide (Homo sapiens, UniProt P00533, DELINS30-297G); experiment: ELISA on de2-7 junctional peptide; assay type: binding
T3 construct: purchased Auspep, Melbourne, Australia; host or cells: chemical synthesis (Fmoc)
Description: In the second assay, the biotinylated de2-7 specific peptide (Biotin […] (SEQ ID NO:5)) was bound to ELISA plates precoated with streptavidin (Pierce, Rockford, Ill.). Antibodies were bound and detected as in the first assay.

[7] = test system: xenograft A431; experiment: immunohistochemical analysis on xenograft tumors; assay type: binding, human
Description: The murine fibroblast line NR6ΔEGFR was used as immunogen. Mouse hybridomas were generated by immunizing BALB/c mice five times subcutaneously at 2- to 3-week intervals, with 5×10^5-2×10^6 cells in adjuvant. Complete Freund's adjuvant was used for the first injection. Thereafter, incomplete Freund's adjuvant (Difco™, Voigt Global Distribution, Lawrence, Kans.) was used. Spleen cells from immunized mice were fused with mouse myeloma cell line SP2/0 (Shulman et al. (1978) Nature 276:269-270). Supernatants of newly generated clones were screened in hemadsorption assays for reactivity with cell line NR6, NR6wtEGFR, and NR6ΔEGFR and then analyzed by hemadsorption assays with human glioblastoma cell lines U87MG, U87MGwtEGFR, and U87ΔEGFR. Selected hybridoma supernatants were subsequently tested by western blotting and further analyzed by immunohistochemistry. Newly generated mAbs showing the expected reactivity pattern were purified.
Bound antibody was detected using the Dako Envision+ HRP detection system as per manufacturer's instructions. Sections were finally rinsed with water, counterstained with hematoxylin and mounted.

[8] = target: T4, denatured soluble domain of the EGFR (sEGFR) (Homo sapiens, UniProt P00533); experiment: competition ELISA with biotinylated mAb806; assay type: binding; conditions: after unlabeled blocking antibody
T4 construct: sEGFR is the recombinant extracellular domain (amino acids 1-621) of the wild-type EGFR); host or cells: CHO cells
Procedure: Briefly, the denatured soluble domain of the EGFR (sEGFR) was coated on to ELISA plates. The unlabeled 124 or 1133 antibodies were then added across the plate in increasing concentrations.

[9] = target: T5, deglycosylated sEGFR (Homo sapiens, UniProt P00533); experiment: immunoblot of PNGase F treated sEGFR; assay type: binding
T5 construct: sEGFR is the recombinant extracellular domain (amino acids 1-621) of the wild-type EGFR); host or cells: CHO cells
Procedure: To determine if carbohydrate structures are directly involved in the mAb806 epitope, the recombinant sEGFR expressed in CHO cells was treated with PNGase F to remove N-linked glycosylation.

[10] = test system: DU145 xenografts; experiment: s.c. xenograft therapy study; assay type: in vivo, nude mice; conditions: day 67; 1 mg i.p.; control 1145

B1: mAb806: murine IgG2b monoclonal antibody, clone 806, ATCC PTA-3858; VH SEQ ID NO:2, VL SEQ ID NO:4 (antibody, listed as Mus musculus, V domains shown)
VH: MRVLILLWLFTAFPGVLSDVQLQESGPSLVKPSQSLSLTCTVTGYSITSDFAWNWIRQFPGNKLEWMGYISYSGNTRYNPSLKSRISITRDTSKNQFFLQLNSVTIEDTATYYCVTAGRGFPYWGQGTLVTVSA
VL: MVSTAQFLAFLLLWFPGARCDILMTQSPSSMSVSLGDTVSITCHSSQDINSNIGWLQQRPGKSFKGLIYHGTNLDDEVPSRFSGSGSGADYSLTISSLESEDFADYYCVQYAQFPWTFGGGTKLEIKR
Endo H sensitivity of the precipitated EGFR [1]: sensitive to Endo H | binding by FACS [2]: bind | mAb806 binding in the presence of increasing amounts of AG1478 [3]: significantly increased | effect on survival [4]: did not extend survival | FACS staining [5]: clearly stained | binding to the unique de2-7 EGFR peptide [6]: Neither mAb806 or the 528 antibody bound to the peptide | Immunohistochemical staining [7]: pos. (predominantly basal | Binding of biotin-labeled 806 [8]: None | binding to deglycosylated sEGFR [9]: clearly bound | mean tumor volume [10]: 605 mm^3
